Measurements published in the supplement of paper PMC10065799, “High-throughput profiling of sequence recognition by tyrosine kinases and SH2 domains using bacterial peptide display” (eLife, 2023).

What was measured:
Hck = Hck (UniProt P08631); assay: phosphorylation enrichment, bacterial display (enrichment ratio); higher = better substrate or ligand; peptides without Tyr show the background
EPHB2 = EPHB2 (UniProt P29323); assay: as above
Fer (mouse) = assay: as above
Fyn = Fyn (UniProt P06241); assay: as above
Fyn, sequence (P06241 whole entry, looked up): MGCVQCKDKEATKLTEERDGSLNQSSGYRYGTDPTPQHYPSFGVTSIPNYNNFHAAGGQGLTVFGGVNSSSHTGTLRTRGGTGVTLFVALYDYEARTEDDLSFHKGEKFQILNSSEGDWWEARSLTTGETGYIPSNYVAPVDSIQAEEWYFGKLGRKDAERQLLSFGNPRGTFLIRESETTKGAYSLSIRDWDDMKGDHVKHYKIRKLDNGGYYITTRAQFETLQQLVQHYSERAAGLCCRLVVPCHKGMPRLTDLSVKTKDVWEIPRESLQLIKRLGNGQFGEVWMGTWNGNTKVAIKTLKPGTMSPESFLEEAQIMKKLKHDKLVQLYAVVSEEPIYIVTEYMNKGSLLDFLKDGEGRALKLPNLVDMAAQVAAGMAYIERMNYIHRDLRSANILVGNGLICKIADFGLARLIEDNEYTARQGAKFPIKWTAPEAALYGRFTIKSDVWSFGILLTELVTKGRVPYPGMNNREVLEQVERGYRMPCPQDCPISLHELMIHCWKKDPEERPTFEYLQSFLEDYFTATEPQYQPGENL

EPHB1 = EPHB1 (UniProt P54762); assay: as above
EPHB1, sequence (P54762 whole entry, looked up): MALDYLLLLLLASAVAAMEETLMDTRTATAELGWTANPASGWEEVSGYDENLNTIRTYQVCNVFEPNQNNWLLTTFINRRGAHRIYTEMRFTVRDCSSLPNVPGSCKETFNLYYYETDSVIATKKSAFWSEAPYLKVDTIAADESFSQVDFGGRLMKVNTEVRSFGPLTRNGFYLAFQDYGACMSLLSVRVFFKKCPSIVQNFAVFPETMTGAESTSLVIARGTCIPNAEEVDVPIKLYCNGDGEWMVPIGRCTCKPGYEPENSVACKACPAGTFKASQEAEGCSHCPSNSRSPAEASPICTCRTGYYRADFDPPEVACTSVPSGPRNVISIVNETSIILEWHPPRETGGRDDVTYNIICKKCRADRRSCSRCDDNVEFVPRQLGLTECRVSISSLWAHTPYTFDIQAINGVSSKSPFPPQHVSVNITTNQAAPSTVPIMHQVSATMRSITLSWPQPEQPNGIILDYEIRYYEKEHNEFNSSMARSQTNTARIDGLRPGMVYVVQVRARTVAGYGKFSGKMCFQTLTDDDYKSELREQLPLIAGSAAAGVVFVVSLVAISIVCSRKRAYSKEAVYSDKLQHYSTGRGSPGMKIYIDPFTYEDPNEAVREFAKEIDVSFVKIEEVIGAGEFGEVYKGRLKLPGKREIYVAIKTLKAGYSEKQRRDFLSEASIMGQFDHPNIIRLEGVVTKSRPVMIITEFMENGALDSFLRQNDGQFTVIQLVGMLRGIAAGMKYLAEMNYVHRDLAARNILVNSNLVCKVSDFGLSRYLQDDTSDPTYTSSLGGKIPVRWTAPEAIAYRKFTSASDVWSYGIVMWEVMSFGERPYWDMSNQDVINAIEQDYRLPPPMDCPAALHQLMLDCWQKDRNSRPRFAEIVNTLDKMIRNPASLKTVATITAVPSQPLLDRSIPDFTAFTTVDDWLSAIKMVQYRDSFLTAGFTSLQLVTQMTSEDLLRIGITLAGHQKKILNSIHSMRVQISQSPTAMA

Fes = Fes (UniProt P07332); assay: as above
AncSZ = assay: as above
FGFR1 = FGFR1 (UniProt P11362); assay: as above
FGFR1, sequence (P11362 whole entry, looked up): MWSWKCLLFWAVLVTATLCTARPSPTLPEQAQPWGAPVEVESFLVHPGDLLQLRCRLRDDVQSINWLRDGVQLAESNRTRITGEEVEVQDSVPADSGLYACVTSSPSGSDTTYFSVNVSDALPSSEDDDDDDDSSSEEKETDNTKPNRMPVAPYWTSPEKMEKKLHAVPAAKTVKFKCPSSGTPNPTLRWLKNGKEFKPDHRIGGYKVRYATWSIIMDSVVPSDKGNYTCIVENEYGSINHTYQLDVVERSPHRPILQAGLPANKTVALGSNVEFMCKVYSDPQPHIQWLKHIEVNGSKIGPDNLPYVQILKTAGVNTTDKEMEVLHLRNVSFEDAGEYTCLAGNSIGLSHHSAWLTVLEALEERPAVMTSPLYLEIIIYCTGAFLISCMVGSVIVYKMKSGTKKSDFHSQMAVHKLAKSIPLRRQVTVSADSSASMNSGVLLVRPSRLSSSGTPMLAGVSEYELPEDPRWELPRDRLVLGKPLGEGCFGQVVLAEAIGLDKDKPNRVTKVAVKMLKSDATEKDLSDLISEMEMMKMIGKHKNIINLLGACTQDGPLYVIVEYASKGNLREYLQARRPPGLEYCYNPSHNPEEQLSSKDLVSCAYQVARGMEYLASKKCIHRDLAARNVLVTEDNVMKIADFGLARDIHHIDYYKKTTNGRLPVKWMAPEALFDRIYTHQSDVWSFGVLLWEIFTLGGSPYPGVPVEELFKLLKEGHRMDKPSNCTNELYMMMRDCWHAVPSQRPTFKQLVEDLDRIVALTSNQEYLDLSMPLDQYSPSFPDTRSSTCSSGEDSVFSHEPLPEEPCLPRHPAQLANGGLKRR

c-Abl (mouse) = assay: as above
FGFR3 = FGFR3 (UniProt P22607); assay: as above
Jak2 = Jak2 (UniProt O60674); assay: as above
c-Src = assay: as above
MERTK = MERTK (UniProt Q12866); assay: as above
MERTK, sequence (Q12866 whole entry, looked up): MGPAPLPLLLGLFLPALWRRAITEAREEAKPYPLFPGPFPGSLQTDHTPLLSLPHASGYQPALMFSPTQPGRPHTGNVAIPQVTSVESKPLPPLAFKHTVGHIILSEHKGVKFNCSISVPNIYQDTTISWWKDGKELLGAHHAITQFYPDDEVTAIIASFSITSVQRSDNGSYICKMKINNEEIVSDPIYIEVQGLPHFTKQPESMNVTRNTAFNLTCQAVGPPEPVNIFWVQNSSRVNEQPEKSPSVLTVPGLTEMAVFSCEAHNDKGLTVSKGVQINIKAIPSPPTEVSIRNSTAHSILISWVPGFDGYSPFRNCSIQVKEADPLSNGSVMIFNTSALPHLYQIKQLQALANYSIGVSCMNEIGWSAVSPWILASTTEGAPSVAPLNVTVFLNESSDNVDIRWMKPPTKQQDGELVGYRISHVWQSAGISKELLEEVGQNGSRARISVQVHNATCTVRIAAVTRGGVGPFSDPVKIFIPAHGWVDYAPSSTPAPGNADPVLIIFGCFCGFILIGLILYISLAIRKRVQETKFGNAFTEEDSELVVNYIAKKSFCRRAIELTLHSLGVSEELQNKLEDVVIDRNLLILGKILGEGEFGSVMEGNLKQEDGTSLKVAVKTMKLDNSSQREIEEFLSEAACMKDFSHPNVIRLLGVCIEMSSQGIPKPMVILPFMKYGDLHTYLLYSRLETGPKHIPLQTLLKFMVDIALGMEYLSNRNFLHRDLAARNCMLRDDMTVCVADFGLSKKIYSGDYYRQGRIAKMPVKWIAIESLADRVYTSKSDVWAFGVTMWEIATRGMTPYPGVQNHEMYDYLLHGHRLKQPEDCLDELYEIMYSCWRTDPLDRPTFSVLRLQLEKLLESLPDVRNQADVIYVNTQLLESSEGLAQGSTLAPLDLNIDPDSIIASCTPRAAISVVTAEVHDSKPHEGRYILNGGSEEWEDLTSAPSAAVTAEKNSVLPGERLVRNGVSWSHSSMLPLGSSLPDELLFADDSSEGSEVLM

c-Src SH2 = assay: SH2 binding enrichment of the phosphorylated peptide, bacterial display (enrichment ratio); higher = better substrate or ligand; peptides without Tyr show the background
SHP2-C SH2 = assay: as above
Grb2 SH2 = Grb2 SH2 (UniProt P62993); assay: as above
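For SH2 binding enrichment of the phosphorylated peptide, bacterial display in this document: peptide library displayed on the E. coli surface as eCPX fusions, selected cells deep-sequenced, score is each peptide's frequency after selection divided by its frequency in the input.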
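For phosphorylation enrichment, bacterial display in this document: 11-residue human phosphosite peptides and single-mutation variants displayed on the E. coli surface, counted by deep sequencing, each peptide's frequency after selection divided by its frequency in the unselected input library; frequency after pTyr selection over input frequency; kinase dosed for 20-30% of maximal phosphorylation in three min.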

EPHB2, sequence (P29323 whole entry, looked up): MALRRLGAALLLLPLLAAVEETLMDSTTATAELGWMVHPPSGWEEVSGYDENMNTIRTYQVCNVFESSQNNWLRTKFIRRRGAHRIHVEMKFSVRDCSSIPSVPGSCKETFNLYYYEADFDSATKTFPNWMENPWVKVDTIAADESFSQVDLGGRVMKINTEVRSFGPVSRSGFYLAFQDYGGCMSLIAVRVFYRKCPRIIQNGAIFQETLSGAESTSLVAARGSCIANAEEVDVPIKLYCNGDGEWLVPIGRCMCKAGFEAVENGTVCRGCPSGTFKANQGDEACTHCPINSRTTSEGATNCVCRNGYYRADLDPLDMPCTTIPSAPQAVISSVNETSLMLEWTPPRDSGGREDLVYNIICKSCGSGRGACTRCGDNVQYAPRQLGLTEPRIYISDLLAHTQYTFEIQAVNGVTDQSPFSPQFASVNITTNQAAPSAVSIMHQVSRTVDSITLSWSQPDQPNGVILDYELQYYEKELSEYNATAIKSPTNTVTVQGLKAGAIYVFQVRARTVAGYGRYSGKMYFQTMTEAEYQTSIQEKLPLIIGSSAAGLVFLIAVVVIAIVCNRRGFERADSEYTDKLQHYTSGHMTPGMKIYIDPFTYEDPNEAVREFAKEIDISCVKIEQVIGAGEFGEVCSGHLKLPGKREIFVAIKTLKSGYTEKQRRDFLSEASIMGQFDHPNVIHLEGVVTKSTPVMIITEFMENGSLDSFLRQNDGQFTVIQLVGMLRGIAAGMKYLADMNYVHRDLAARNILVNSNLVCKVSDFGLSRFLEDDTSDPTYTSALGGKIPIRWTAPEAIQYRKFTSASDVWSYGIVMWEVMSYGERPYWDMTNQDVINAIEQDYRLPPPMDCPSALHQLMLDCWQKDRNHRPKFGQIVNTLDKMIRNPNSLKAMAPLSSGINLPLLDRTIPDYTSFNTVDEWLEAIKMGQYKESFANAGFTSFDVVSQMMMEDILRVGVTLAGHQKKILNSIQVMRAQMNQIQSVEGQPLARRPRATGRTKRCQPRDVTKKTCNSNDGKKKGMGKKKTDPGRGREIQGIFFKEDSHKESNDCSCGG
Hck, sequence (P08631 whole entry, looked up): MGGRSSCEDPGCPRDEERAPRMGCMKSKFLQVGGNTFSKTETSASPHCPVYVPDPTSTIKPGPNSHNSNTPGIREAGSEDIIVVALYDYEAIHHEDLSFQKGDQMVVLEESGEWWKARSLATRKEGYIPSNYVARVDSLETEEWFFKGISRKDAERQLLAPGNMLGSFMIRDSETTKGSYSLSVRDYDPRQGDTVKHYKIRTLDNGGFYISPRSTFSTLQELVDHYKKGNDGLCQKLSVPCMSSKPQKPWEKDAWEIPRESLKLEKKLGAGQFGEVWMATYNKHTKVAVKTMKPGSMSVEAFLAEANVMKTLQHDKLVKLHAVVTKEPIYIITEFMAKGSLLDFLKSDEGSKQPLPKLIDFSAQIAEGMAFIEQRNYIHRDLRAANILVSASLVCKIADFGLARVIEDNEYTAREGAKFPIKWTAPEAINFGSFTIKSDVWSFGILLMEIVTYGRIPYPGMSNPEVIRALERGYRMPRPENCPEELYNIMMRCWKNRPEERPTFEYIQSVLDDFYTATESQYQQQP

Row | SH2 binding enrichment (c-Src SH2) | SH2 binding enrichment (SHP2-C SH2) | SH2 binding enrichment (Grb2 SH2) | Sequence | phosphorylation enrichment (Hck) | phosphorylation enrichment (EPHB2) | phosphorylation enrichment (Fer (mouse)) | phosphorylation enrichment (Fyn) | phosphorylation enrichment (EPHB1) | phosphorylation enrichment (Fes) | phosphorylation enrichment (AncSZ) | phosphorylation enrichment (FGFR1) | phosphorylation enrichment (c-Abl (mouse)) | phosphorylation enrichment (FGFR3) | phosphorylation enrichment (Jak2) | phosphorylation enrichment (c-Src) | phosphorylation enrichment (MERTK)
1 | 0.575 | 0.723 | 0.811 | CHSDDYVHISI [TSC1_Y406_L411I] | 0.573 | 0.67 | 0.597 | 0.532 | 0.898 | 1.39 | 1.65 | 1.65 | 0.879 | 1.29 | 1.07 | 0.524 | 0.457
2 | 2.71 | 1.97 | 1.41 | CPTIHYNFMCN [TP53_Y234_T230P_YF] | 0.655 | 0.596 | 0.646 | 0.557 | 0.576 | 1.17 | 1.09 | 0.687 | 0.757 | 0.79 | 0.916 | 0.603 | 0.501
3 | 1.23 | 1.03 | 1.01 | CTTIHHNYMCN [TP53_Y234_Y234H] | 0.455 | 0.531 | 0.412 | 0.459 | 0.486 | 0.649 | 0.766 | 0.601 | 0.525 | 0.586 | 0.835 | 0.432 | 0.362
4 | 0.85 | 0.836 | 1.07 | CTTIHYNFMHN [TP53_Y234_C238H_YF] | 0.517 | 0.54 | 0.463 | 0.566 | 0.583 | 1 | 0.829 | 0.457 | 0.765 | 0.676 | 0.799 | 0.432 | 0.454
5 | 1.67 | 1.4 | 1.42 | CTTIHYNYKCN [TP53_Y234_M237K] | 0.484 | 0.539 | 0.408 | 0.454 | 0.433 | 0.878 | 0.754 | 0.526 | 0.493 | 0.566 | 0.62 | 0.454 | 0.562
6 | 3.68 | 2.4 | 1.26 | CTTIHYNYMCH [TP53_Y234_N239H] | 0.49 | 0.761 | 0.597 | 0.449 | 0.724 | 0.855 | 0.751 | 0.514 | 0.581 | 0.706 | 0.672 | 0.506 | 0.407
7 | 3.29 | 1.86 | 1.47 | CTTIHYNYTCN [TP53_Y234_M237T] | 0.416 | 0.556 | 0.476 | 0.445 | 0.492 | 0.837 | 0.756 | 0.47 | 0.585 | 0.624 | 0.726 | 0.414 | 0.403
8 | 5.64 | 1.1 | 0.913 | CTTIPYNYMCN [TP53_Y234_H233P] | 0.433 | 0.509 | 0.424 | 0.47 | 0.528 | 0.863 | 1.18 | 0.543 | 0.615 | 0.605 | 0.791 | 0.55 | 0.418

Continued, sequence first:

Row | Sequence | SH2 binding enrichment (c-Src SH2) | SH2 binding enrichment (SHP2-C SH2) | SH2 binding enrichment (Grb2 SH2) | phosphorylation enrichment (Hck) | phosphorylation enrichment (EPHB2) | phosphorylation enrichment (Fer (mouse)) | phosphorylation enrichment (Fyn) | phosphorylation enrichment (EPHB1) | phosphorylation enrichment (Fes) | phosphorylation enrichment (AncSZ) | phosphorylation enrichment (FGFR1) | phosphorylation enrichment (c-Abl (mouse)) | phosphorylation enrichment (FGFR3) | phosphorylation enrichment (Jak2) | phosphorylation enrichment (c-Src) | phosphorylation enrichment (MERTK)
9 | CGSLLYGLVHQ [PRKCG_Y122] | 0.519 | 0.908 | 0.987 | 7.19 | 4.64 | 12.9 | 5.73 | 2.22 | 1.2 | 0.889 | 0.545 | 0.664 | 0.663 | 0.673 | 5.57 | 7.41
10 | CLAKMYFSAVE [CP_Y539_D544E_YF] | 0.621 | 0.834 | 1.09 | 0.663 | 0.552 | 0.602 | 0.822 | 0.589 | 1.35 | 1.22 | 0.599 | 0.848 | 0.909 | 1.19 | 0.721 | 0.514
11 | CLAQRYLIWEC [SCN5A_Y694_R689C] | 1.28 | 1.65 | 1.32 | 0.535 | 0.646 | 0.568 | 0.533 | 0.836 | 1.39 | 1.29 | 0.693 | 0.788 | 0.783 | 1.03 | 0.505 | 0.48
12 | CLLHCYFSQIH [MCM3AP_Y873_R878H] | 1.38 | 1.53 | 2.04 | 0.476 | 0.453 | 0.569 | 0.43 | 0.626 | 1.29 | 0.886 | 0.689 | 0.664 | 0.736 | 1.26 | 0.476 | 0.431
13 | CNPLCYPTIMI [OR6K6_Y160_R159C] | 0.42 | 0.617 | 0.622 | 0.442 | 0.524 | 1.37 | 0.408 | 0.518 | 0.821 | 0.867 | 1.71 | 0.596 | 0.828 | 0.721 | 0.416 | 0.917
14 | CQLENYCNGGG [INS_Y108_Y103C] | 1.17 | 0.888 | 1.29 | 0.57 | 0.696 | 0.49 | 0.54 | 0.681 | 0.89 | 0.925 | 0.573 | 0.621 | 0.664 | 0.837 | 0.494 | 0.503
15 | CRAVKYLQMVG [AVPR2_Y117] | 0.521 | 1.24 | 0.964 | 0.504 | 0.44 | 0.443 | 0.405 | 0.608 | 0.739 | 0.711 | 0.499 | 0.522 | 0.574 | 0.619 | 0.401 | 0.379
16 | DAICYYRMENA [NPHS2_Y195] | 0.641 | 0.799 | 0.952 | 1.11 | 0.795 | 0.736 | 1.34 | 0.866 | 1.44 | 2.23 | 7.73 | 1.03 | 6.5 | 6.63 | 3.12 | 1.28
17 | DASAVYLRDFQ [PLCG2_Y242_H244R] | 0.471 | 0.553 | 0.95 | 0.544 | 0.492 | 0.452 | 0.562 | 0.506 | 0.963 | 0.769 | 0.425 | 0.986 | 0.58 | 0.894 | 0.693 | 0.675
